# Assay results from the Human Domainome abundance scans (Beltran et al. 2025).
# ± gives the uncertainty stated by the source.
# B1: Chromodomain-helicase-DNA-binding protein 3, residues 374 to 426; numbered along this chain, Q12873 (parent)
# chain: YETDHQDYCEVCQQGGEIILCDTCPRAYHLVCLDPELDRAPEGKWSCPHCEKE
# Variants of: B1
# Experiment: abundance fitness (aPCA) (normalised: wild type 0, dead -1); higher = more abundant; growth selection in yeast, the domain comes from the species named
# Conditions: Homo sapiens
row,Variant,abundance fitness
1,L30Y,0.098 ± 0.13
2,L30H,-0.059 ± 0.13
3,L30V,-0.014 ± 0.1
4,L30N,-0.197 ± 0.18
5,L30C,0.072 ± 0.12
6,L30E,-0.155 ± 0.14
7,L30Q,-0.189 ± 0.14
8,L30F,-0.038 ± 0.15
9,L30D,-0.264 ± 0.17
10,L30M,0.067 ± 0.088
11,L30A,0.053 ± 0.11
12,L30S,-0.202 ± 0.097
13,L30I,-0.27 ± 0.14
14,L30K,-0.121 ± 0.14
15,L30P,0.021 ± 0.11
16,L30T,-0.067 ± 0.11
17,P25N,-0.204 ± 0.4
18,P25Q,-0.39 ± 0.23
19,P25A,0.092 ± 0.14
20,P25F,-0.021 ± 0.37
21,P25C,0.04 ± 0.18
22,P25H,-0.249 ± 0.26
23,P25D,-0.482 ± 0.28
24,P25T,-0.004 ± 0.14

row,Variant,abundance fitness
1,P25K,-0.385 ± 0.18
2,P25S,-0.116 ± 0.13
3,P25R,-0.235 ± 0.12
4,P25M,-0.227 ± 0.24
5,P25I,-0.261 ± 0.33
6,P25W,-0.144 ± 0.14
7,I19K,0.19 ± 0.13
8,I19N,0.167 ± 0.22
9,I19D,-0.248 ± 0.14
10,I19T,0.051 ± 0.11
11,I19Q,0.068 ± 0.16
12,I19R,-0.101 ± 0.1
13,I19G,-0.177 ± 0.087
14,I19M,0.313 ± 0.14
15,I19L,0.093 ± 0.097
16,I19H,-0.111 ± 0.25
17,I19S,-0.162 ± 0.11
18,I19V,-0.153 ± 0.1
19,I19F,-0.277 ± 0.22
20,I19Y,0.117 ± 0.18
21,Y28M,0.219 ± 0.14
22,Y28D,-0.593 ± 0.18
23,Y28A,0.122 ± 0.12
24,Y28Q,-0.445 ± 0.14

row,Variant,abundance fitness
1,Y28R,-0.256 ± 0.1
2,Y28N,-0.377 ± 0.14
3,Y28L,-0.059 ± 0.1
4,Y28E,-0.48 ± 0.21
5,Y28V,-0.284 ± 0.11
6,Y28P,-0.837 ± 0.2
7,Y28F,-0.145 ± 0.12
8,Y28I,0.013 ± 0.13
9,Y28K,-0.578 ± 0.22
10,Y28H,0.148 ± 0.13
11,Y28C,-0.189 ± 0.15
12,Y28W,0.143 ± 0.14
13,Y28G,-0.191 ± 0.14
14,Y28T,-0.203 ± 0.14
15,C21E,-1.15 ± 0.28
16,C21K,-0.846 ± 0.2
17,C21Q,-0.822 ± 0.2
18,C21M,-0.901 ± 0.21
19,C21D,-0.868 ± 0.26
20,C21P,-0.984 ± 0.34
21,C21W,-0.831 ± 0.15
22,C21I,-0.818 ± 0.21
23,C21T,-0.381 ± 0.17
24,C21N,-0.903 ± 0.21

row,Variant,abundance fitness
1,C21L,-0.74 ± 0.13
2,C21Y,-0.692 ± 0.16
3,C21V,-0.57 ± 0.13
4,C21H,-0.806 ± 0.25
5,C21S,-0.569 ± 0.13
6,C21G,-0.637 ± 0.12
7,C21A,-0.778 ± 0.16
8,I18C,-0.521 ± 0.19
9,I18A,0.024 ± 0.1
10,I18S,-0.26 ± 0.12
11,I18P,-0.191 ± 0.12
12,I18E,0.13 ± 0.14
13,I18F,-0.071 ± 0.15
14,I18L,-0.022 ± 0.099
15,I18Q,-0.107 ± 0.14
16,I18W,-0.152 ± 0.14
17,I18G,-0.087 ± 0.11
18,I18H,0.063 ± 0.16
19,I18V,-0.297 ± 0.11
20,I18N,-0.218 ± 0.18
21,I18R,-0.12 ± 0.091
22,I18T,0.131 ± 0.14
23,I18K,-0.124 ± 0.15
24,I18Y,0.162 ± 0.13

row,Variant,abundance fitness
1,C32A,-1.09 ± 0.14
2,C32E,-0.663 ± 0.24
3,C32V,-1.2 ± 0.15
4,C32N,-0.797 ± 0.13
5,C32S,-0.68 ± 0.086
6,C32K,-0.958 ± 0.21
7,C32R,-1.06 ± 0.12
8,C32W,-0.502 ± 0.15
9,C32Q,-0.821 ± 0.15
10,C32D,-0.718 ± 0.16
11,C32L,-0.986 ± 0.095
12,C32H,-0.163 ± 0.085
13,C32P,-0.957 ± 0.11
14,C32F,-1.05 ± 0.11
15,C32I,-1.06 ± 0.12
16,C32M,-0.94 ± 0.18
17,C32T,-0.948 ± 0.12
18,L33C,0.072 ± 0.12
19,L33D,-0.755 ± 0.29
20,L33E,-0.365 ± 0.18
21,L33A,-0.12 ± 0.12
22,D22A,-0.31 ± 0.27
23,D22V,-0.204 ± 0.12
24,D22T,-0.222 ± 0.16

row,Variant,abundance fitness
1,D22Y,-0.142 ± 0.22
2,D22L,-0.171 ± 0.14
3,D22W,-0.013 ± 0.17
4,D22R,0.053 ± 0.14
5,D22H,-0.388 ± 0.28
6,D22N,-0.008 ± 0.15
7,D22M,0.008 ± 0.28
8,D22F,-0.344 ± 0.19
9,D22P,-0.109 ± 0.18
10,D22Q,0.557 ± 0.18
11,D22I,-0.021 ± 0.24
12,D22G,-0.191 ± 0.16
13,D22S,0.048 ± 0.15
14,D22C,-0.229 ± 0.18
15,Q14L,-0.127 ± 0.1
16,Q14T,-0.051 ± 0.1
17,Q14A,-0.043 ± 0.12
18,Q14D,-0.166 ± 0.18
19,Q14F,-0.26 ± 0.12
20,Q14M,-0.022 ± 0.14
21,Q14C,-0.036 ± 0.13
22,Q14R,0.017 ± 0.088
23,Q14V,-0.129 ± 0.14
24,Q14E,-0.029 ± 0.43

row,Variant,abundance fitness
1,Q14N,0.016 ± 0.15
2,Q14G,-0.151 ± 0.15
3,Q14I,-0.17 ± 0.17
4,Q14P,-1 ± 0.22
5,Q14S,-0.192 ± 0.096
6,Q14H,-0.159 ± 0.15
7,Q14Y,-0.501 ± 0.2
8,A27K,-0.407 ± 0.41
9,R26N,-0.169 ± 0.16
10,R26D,-0.159 ± 0.15
11,R26L,0.155 ± 0.1
12,R26H,-0.17 ± 0.18
13,R26E,-0.123 ± 0.13
14,R26Q,0.417 ± 0.28
15,R26A,-0.202 ± 0.11
16,R26G,-0.046 ± 0.091
17,R26C,-0.669 ± 0.24
18,R26V,-0.363 ± 0.1
19,R26S,0.087 ± 0.1
20,R26M,-0.106 ± 0.16
21,R26Y,-0.148 ± 0.15
22,R26I,-0.445 ± 0.17
23,R26P,-0.655 ± 0.17
